From patent US20210396736A1, “SCREENING ASSAY” (The University of Bath, priority 2018, published 2021) come the findings set out here.

One experiment concerns the target T1, cJun bZIP (Homo sapiens, UniProt P05412, S292Y).
T1 construct: cJun with the basic region and leucine zipper (cJun bZip); expressed in transfected cells
Put plainly: Further TBS assay experiment, Example 3 (colony count, FIG. 3). The class given is cell-based. The conditions noted are these: for rescue of DHFR expression / change in number of colonies compared to plate 2: co-expressed with TRE mDHFR and cJun bZIP. The source says: This experiment used similar plasmids to those set out in Example 1, with the exception that pET24a was used to express both the lac repressor and test compound using a single plasmid. Specifically, three plasmids were used: i) p300d expressing the mDHFR gene modified to include 15 TREs (TRE mDHFR, generated as described in Example 1); ii) p230d expressing either the leucine zipper part of cJun (cJun LZ) or cJun with the basic region and leucine zipper (cJun bZip); iii) pET24a expressing the lac repressor and either the leucine zipper part of cFos (cFos LZ) or the acidic FosW peptide (acidic FosW).
Plates were generated as set out in the following table:
The number of colonies produced in each plate were counted and this quantification is illustrated in FIG. 3.

Another experiment concerns AP-1. Description: AP-1 driven luciferase gene reporter assay. The class given is cell-based, mammalian. The conditions noted are these: transfected, versus control and dummy vector; FIG. 2. The source says:
Wild-type AP-1 proteins have a long stretch of basic amino acids at the N-terminal of the protein which enables DNA binding. Acidic versions of AP-1 proteins can be generated with a long stretch of negatively charged amino acids (in place of the positive) which can serve as a DNA mimic. Acidic AP-1 peptide variants can therefore form heterodimers with wild type AP-1 proteins driven by both the dimerization motif and the negative/positive charge interaction, resulting in their sequestration from the DNA.
In order to test whether the peptides identified as being functional antagonists in the TBS assay are also likely to have the same activity in eukaryotic cells, a AP-1 driven luciferase gene reporter assay was carried out. This assay was carried out using no transfection (control), transfected dummy vector, acidic c-Jun, acidic c-Fos and library-derived peptide treated (FosW).

[1] abbreviates: co-expressed with TRE mDHFR and cJun bZIP (plates 2 and 3).

T1 sequence (P05412 252-315 S292Y limits assumed): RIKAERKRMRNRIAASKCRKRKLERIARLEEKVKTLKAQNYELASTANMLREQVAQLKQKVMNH

Take “cFos LZ: the leucine zipper part of cFos; binds the coiled-coil region of cJun (MASTDTLQAETDQLEDEKYALQTEIANLLKEKEKLGAP)”: the “rescue of DHFR expression / change in number of colonies compared to plate 2” value in the experiment with cJun bZIP is given as “not able to rescue expression of the DHFR protein”. Moreover, the “number of bacterial colonies” value with cJun bZIP (setting [1]) is on record as less than 20 colonies; with cJun bZIP (control plate 1: co-expressed with TRE mDHFR and cJun LZ (no basic DNA-binding region)), greater than 300 colonies.

B1: Acidic FosW: library-derived peptide able to dissociate the cJun bZIP protein from the TRE sites in TRE mDHFR (peptide)
peptide: MASLEQRAEELARENEELEKEAEELEQELDELQAEIEQLEERNYALRKEIEDLQKQLEKLGAP
As to B1, in the experiment with cJun bZIP, the “rescue of DHFR expression / change in number of colonies compared to plate 2” value is listed as “substantial increase in the number of colonies”. In the experiment with cJun bZIP (setting [1]), the “number of bacterial colonies” value is recorded as greater than 200 colonies. Further, the “AP-1 driven luciferase activity” value in the experiment on AP-1 is “dramatic reduction in the signal”.
